Source: paper PMC4641775 (2016)
Read-outs that look alike come from different tables or passages of the source.

Legend:
[1] = target: PKR (Homo sapiens) (UniProt P19525); conditions: cited from earlier work
[2] = target: PKR (Homo sapiens) (UniProt P19525); assay: sedimentation equilibrium; conditions: cited from earlier work
[3] = target: PKR kinase kinase domain (Homo sapiens) (UniProt P19525); conditions: cited from earlier work
[4] = target: T1, PKR (Homo sapiens, UniProt P19525); assay: sedimentation equilibrium
T1 chain: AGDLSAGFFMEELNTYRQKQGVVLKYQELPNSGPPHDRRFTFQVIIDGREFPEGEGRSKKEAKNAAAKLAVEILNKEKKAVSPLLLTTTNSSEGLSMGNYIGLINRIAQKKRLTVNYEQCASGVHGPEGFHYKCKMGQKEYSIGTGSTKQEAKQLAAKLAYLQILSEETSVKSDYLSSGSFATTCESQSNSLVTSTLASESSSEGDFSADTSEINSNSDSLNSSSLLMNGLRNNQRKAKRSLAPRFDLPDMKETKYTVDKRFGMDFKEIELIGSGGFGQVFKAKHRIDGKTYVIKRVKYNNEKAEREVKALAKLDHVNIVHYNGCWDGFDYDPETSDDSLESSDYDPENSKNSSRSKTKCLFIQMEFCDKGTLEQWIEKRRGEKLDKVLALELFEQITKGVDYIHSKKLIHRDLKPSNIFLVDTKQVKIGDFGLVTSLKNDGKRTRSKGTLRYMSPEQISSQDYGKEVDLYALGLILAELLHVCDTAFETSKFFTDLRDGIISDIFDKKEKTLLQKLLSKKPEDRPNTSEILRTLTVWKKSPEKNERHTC

Molecule: PKR (from UniProt P19525)
- Kd [1]: 500 µM
- Kd [2]: 450 µM

Molecule: PKR second dsRBD dsRBD2 (from UniProt P19525)
- Kd [3]: 250 µM

B1: PKR (protein)
chain: T1 chain
modifications: K371pAzF labeled with Alexa Fluor 488-DIBO
- Kd [4]: 1260 µM

B2: PKR (protein)
chain: T1 chain
modifications: K261pAzF labeled with Alexa Fluor 488-DIBO
- Kd [4]: 94 µM
